In publication PMC8927147, “Global profiling of regulatory elements in the histone benzoylation pathway” (Nature Communications, 2022):

Tests used:
[1] = molecular target: T1, H3K14bz peptide; test: ITC; settings: chain shown with the change
T1 chain: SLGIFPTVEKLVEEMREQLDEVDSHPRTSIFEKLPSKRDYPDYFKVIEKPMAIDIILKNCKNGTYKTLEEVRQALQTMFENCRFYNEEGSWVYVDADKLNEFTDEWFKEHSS

[2] = molecular target: T2, H3K27bz peptide; test: ITC; settings: chain shown with the change
T2 chain: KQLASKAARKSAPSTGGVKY

B1: Sth1BD, P32597 A1329C (peptide)
chain: TARKSTGGKAPRKQLASY
B1 gave a Kd [1] of 187 µM.

B2: Sas5_(YEATS), Q99314 K64P (protein)
chain: DHSIEVTFRVKTQQVIIPEQNIRGNELPLRRWQMELLMLDATGKEVEPTILSKCIYHLHSSFPQPKRRLNSLPFFIKETGWGEFNLKIECFFIGNAGKFSIEHDLTFEDDAYAVDYTVDVPHEFSHLNSELSKYFDLP
Binder B2 has a Kd [2] of 31.1 µM.

B3: Sas5_(YEATS), Q99314 L30H (protein)
chain: DHSIEVTFRVKTQQVIIPEQNIRGNELPHRRWQMELLMLDATGKEVEPTILSKCIYHLHSSFKQPKRRLNSLPFFIKETGWGEFNLKIECFFIGNAGKFSIEHDLTFEDDAYAVDYTVDVPHEFSHLNSELSKYFDLP
B3 gave a Kd [2] of 369 µM.
